Measured values taken from publication PMC5532264.

Tests used:
[1] = AFM, tether rupture events per retraction; conditions: glycan lost; control: DC-SIGN-WT
[2] = cell surface expression by flow cytometry, CHO; conditions: glycan lost; control: DC-SIGN-WT
[3] = linear fit to averaged AFM retraction FD-curves; conditions: glycan lost; control: untreated CHO-DC-SIGN-WT

B1: DC-SIGN (CD209): N80A (protein)
parent chain: MSDSKEPRLQQLGLLEEEQLRGLGFRQTRGYKSLAGCLGHGPLVLQLLSFTLLAGLLVQVSKVPSSISQEQSRQDAIYQNLTQLKAAVGELSEKSKLQEIYQELTQLKAAVGELPEKSKLQEIYQELTRLKAAVGELPEKSKLQEIYQELTWLKAAVGELPEKSKMQEIYQELTRLKAAVGELPEKSKQQEIYQELTRLKAAVGELPEKSKQQEIYQELTRLKAAVGELPEKSKQQEIYQELTQLKAAVERLCHPCPWEWTFFQGNCYFMSNSQRNWHDSITACKEVGAQLVVIKSAEEQNFLQLQSSRSNRFTWMGLSDLNQEGTWQWVDGSPLLPSFKQYWNRGEPNNVGEEDCAEFSGNGWNDDKCNLAKFWICKKSAASCSRDEEQFLSPAPATPNPPPA
- other: membrane tether formation [1]: no change
- expression_or_secretion [2]: no change
- other: adhesion-site elasticity (cell stiffening), fold_change [3]: decreases
